Consider one molecule from CN112048019A (LUNAN PHARMACEUTICAL GROUP CORP, dated 2020).

By Kd is commonly meant the concentration at which binding is half-saturated. Read a high Kd as weaker binding. The koff is a measure of how fast the partners let go of each other. A low value points to slow dissociation. The kon is a measure of how fast the partners come together. One may read the EC50 as the concentration giving half of the maximal effect.

For assay [1], the target named is CD47蛋白 (analyte in the ForteBio assay) (human, UniProt Q08722 19-139, limits assumed). As to the kind of experiment: BLI (ForteBio), antibody captured on Protein A sensor, CD47 protein in solution at 6 concentrations. (In general: Biolayer interferometry detects binding as a change in optical thickness at a sensor tip.)
Chain of CD47蛋白 (analyte in the ForteBio assay) (Q08722 19-139 limits assumed): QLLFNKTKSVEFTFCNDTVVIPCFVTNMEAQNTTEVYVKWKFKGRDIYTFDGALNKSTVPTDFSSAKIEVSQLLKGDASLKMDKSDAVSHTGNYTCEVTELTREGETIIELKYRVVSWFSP
The target in assay [2] is T1, 重组CD47-Fc融合蛋白 (human, UniProt Q08722 19-139, limits assumed).
T1 construct: not shown: Fc part
T1 sequence (Q08722 19-139 limits assumed): as above
As to the kind of experiment: competition ELISA: CD47-Fc coated, antibody blocks binding of SIRPα-His, anti-His-HRP detection. A general note: An ELISA detects its analyte on a solid surface through an enzyme-linked reagent.

Assay [3] addresses CD47-his蛋白 (human). The experiment in a line: screening ELISA of hybridoma supernatant on coated CD47-his.

Chain of CD47-his蛋白 (human) (chain, as listed by the source limits assumed): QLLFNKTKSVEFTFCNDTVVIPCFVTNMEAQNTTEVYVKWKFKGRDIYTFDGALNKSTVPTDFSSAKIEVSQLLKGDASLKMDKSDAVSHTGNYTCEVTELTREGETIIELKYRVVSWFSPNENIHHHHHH

B1: 抗CD47单克隆抗体3D8 (杂交瘤细胞株3D8, CGMCC No:17293) (antibody, V domains shown)
VH: EVKLQESGAELMKPGASVKISCKATGYTFSRYWIEWVKQRPGHGLEWIGDILPGTSNTNYNEKFKGKATFTADSSSNTAYMQLSSLTSEDSAVYYCARRGLLRFDCWGQGTTVTVSS
VL: DIQLTQSPAIMSASPGEKVTMTCRASSSVSSSYLHWYQQKSGASPKLWIYSSSTLASGVPARFSGSGSGTSYSLTISSVEAEDAATYYCQQYSGYPLTFGSGTKLGIKR
In assay [1], B1 displayed a Kd of 0.0129 nM, a koff of 1.1e-05 s⁻¹ and a kon of 853000 M⁻¹ s⁻¹. Moreover, in assay [2], the EC50 came out at 0.17 nM. Also, the binding result in assay [3] is recorded as “binds”.
